{"source": "paper PMC9122893", "about": "(Cell host & microbe, 2021)", "molecular_target": "T1, IpaH7.8 wild-type (recombinant) (Shigella flexneri, UniProt P18014 2-565)", "T1 sequence": "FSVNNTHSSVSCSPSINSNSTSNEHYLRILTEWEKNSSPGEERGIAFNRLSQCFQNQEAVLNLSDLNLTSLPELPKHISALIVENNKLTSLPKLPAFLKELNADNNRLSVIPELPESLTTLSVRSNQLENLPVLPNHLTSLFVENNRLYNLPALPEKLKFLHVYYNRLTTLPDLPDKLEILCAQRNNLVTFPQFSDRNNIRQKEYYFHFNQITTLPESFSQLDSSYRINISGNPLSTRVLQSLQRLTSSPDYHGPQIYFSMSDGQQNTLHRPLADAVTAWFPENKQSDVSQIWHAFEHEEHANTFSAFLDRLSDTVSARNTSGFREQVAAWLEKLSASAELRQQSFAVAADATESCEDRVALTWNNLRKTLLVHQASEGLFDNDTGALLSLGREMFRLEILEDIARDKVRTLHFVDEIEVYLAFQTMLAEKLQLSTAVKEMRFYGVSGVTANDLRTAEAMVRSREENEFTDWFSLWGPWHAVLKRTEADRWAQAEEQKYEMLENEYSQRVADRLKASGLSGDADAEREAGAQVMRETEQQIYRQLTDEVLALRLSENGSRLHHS", "assay": "MST", "data": [{"binder": "hsGSDMD-1D4 (purified, dye-labelled) (natural protein, labelled with the 2nd generation red-maleimide dye (Nanotemper protein labeling kit)) MGSAFERVVRRVVQELDHGGEFIPVTSLQSSTGFQPYCLVVRKPSSSWFWKPRYKCVNLSIKDILEPDAAEPDVQRGRSFHFYDAMDGQIQGSVELAAPGQAKIAGGAAVSDSSSTSMNVYSLSVDPNTWQTLLHERHLRQPEHKVLQQLRSRGDNVYVVTEVLQTQKEVEVTRTHKREGSGRFSLPGATCLQGEGQGHLSQKKTVTIPSGSTLAFRVAQLVIDSDLDVLLFPDKKQRTFQPPATGHKRSTSEGAWPQLPSGLSMMRCLHNFLTDGVPAEGAFTEDFQGLRAEVETISKELELLDRELCQLLLEGLEGVLRDQLALRALEEALEQGQSLGPVEPLDGPAGAVLECLVLSSGMLVPELAIPVVYLLGALTMLSETQHKLLAEALESQTLLGPLELVGSLLEQSAPWQERSTMSLPPGLLGNSWGEGAPAWVLLDECGLELGEDTPHVCWEPQAQGRMCALYASLALLSGLSQEPH", "values": [{"measurement": "Kd", "result": 194, "unit": "nM"}]}]}
